The source of these data is patent publication US20240352111A1 (Regeneron, published 2024).

Assay [1] has as its target T1, hArtemin-MMH (human).
T1 chain: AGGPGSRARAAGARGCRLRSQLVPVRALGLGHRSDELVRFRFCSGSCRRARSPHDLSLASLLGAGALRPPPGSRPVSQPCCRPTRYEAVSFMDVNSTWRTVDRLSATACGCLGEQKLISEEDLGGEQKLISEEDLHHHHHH
As to the kind of experiment: cell-based or functional assay.

For assay [2], the target named is T2, MfArtemin-MMH (cynomolgous monkey (Macaca fascicularis)).
T2 chain: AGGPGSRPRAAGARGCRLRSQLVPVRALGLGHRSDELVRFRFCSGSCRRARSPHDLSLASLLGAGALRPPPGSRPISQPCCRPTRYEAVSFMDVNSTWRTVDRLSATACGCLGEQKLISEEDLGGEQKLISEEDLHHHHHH
In words: cell-based or functional assay.

Assay [3] addresses T3, mArtemin-MMH (mouse).
T3 chain: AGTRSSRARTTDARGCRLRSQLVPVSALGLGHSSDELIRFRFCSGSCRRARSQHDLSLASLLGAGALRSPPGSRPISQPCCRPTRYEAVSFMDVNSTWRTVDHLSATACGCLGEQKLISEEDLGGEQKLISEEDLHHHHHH
As to the kind of experiment: cell-based or functional assay.

The target of assay [4] is T3, mArtemin-MMH. As to the kind of experiment: BLI (Octet HTX), mAb captured on AHC tips, artemin at 15 nM, 25 C. The method, then: (§1) The entire experiment was performed at 25° C. in 10 mM HEPES, 150 mM NaCl, 3 mM EDTA, 0.02% NaN3 and 0.05% v/v Surfactant Tween-20, 1 mg/mL BSA, pH7.4 (HBS-EBT) buffer with the plate shaking at a speed of 1000 rpm. Different Artemin mAbs were first captured onto anti-human antibody (AHC) coated Octet biosensor tips (Fortebio Inc, #18-5064) by submerging the biosensor tips for 40 seconds in wells containing 2 μg/mL of Artemin mAb. […] All the Artemin and Artemin mAb samples were prepared in HBS-EBT buffer. The real-time binding response was monitored during the entire course of the experiment and the binding response at the end of every step was recorded.

Assay [5] has as its target T1, hArtemin-MMH. As to the kind of experiment: BLI (Octet HTX), mAb captured on AHC tips, artemin at 30 nM, 25 C. How it is done: as §1
Assay [6] addresses T2, MfArtemin-MMH. The description is as above. The method, then:
as §1

The target of assay [7] is T3, mArtemin-MMH. Described as above. The method, then:
as §1

Assay [8] has as its target T1, hArtemin-MMH. In words: BLI (Octet HTX), mAb captured on AHC tips, artemin at 3.75 nM, 25 C. How it is done:
as §1

Assay [9] addresses T2, MfArtemin-MMH. The assay is described as above. The method, then:
as §1

For assay [10], the target named is T3, mArtemin-MMH. Described as above. The method, then:
as §1

Assay [11] has as its target T1, hArtemin-MMH. In words: SPR Biacore T200, hArtemin-MMH captured by anti-myc mAb, mAb injected, 25 C. The method, then:
(§2) The equilibrium dissociation constant (KD) for Artemin binding to each of Artemin monoclonal antibodies (mAbs) H4H33331P, H4H33335P, H4H33336P, and H4H33349P was determined using a real-time surface plasmon resonance Biacore T200 biosensor. All binding studies were performed in 10 mM HEPES, 150 mM NaCl, 3 mM EDTA, and 0.05% v/v Surfactant Tween-20, pH 7.4 (HBS-ET) running buffer at 25° C. The Biacore CM4 sensor chip surface was first derivatized by amine coupling with anti-myc mAb to capture hArtemin-MMH, MfArtemin-MMH, or mArtemin-MMH. Different concentrations of Artemin mAbs (60-2.2 nM, 3-fold serial dilution) prepared in […] running buffer were injected over the Artemin-captured surfaces for 3 min at a flow rate of 50 μL/min and their dissociation in HBS-ET running buffer was monitored for 5 minutes. At the end of each cycle, the Artemin-captured surfaces were regenerated using a 6 sec injection of 20 mM phosphoric acid.
(§3) The association rate (kₐ) and dissociation rate (kd) were determined by fitting the real-time binding sensorgrams to a 1:1 binding model with mass transport limitation using Scrubber 2.0c curve-fitting software. Binding dissociation equilibrium constant (KD) and dissociative half-life (t½) were calculated from the kinetic rates as: KD (M)=kd/kₐ, and t_{1/2} (min)=[In2/(60*kd)].

For assay [12], the target named is T2, MfArtemin-MMH. In words: SPR Biacore T200, MfArtemin-MMH captured by anti-myc mAb, mAb injected, 25 C. The method, then: as §2, §3
Assay [13] addresses T1, hArtemin-MMH. As to the kind of experiment: blocking ELISA, antibody blocks 75 pM hARTN.mmh binding to plate-coated hGFRa3.hFc. The method, then: Experiments were carried out using the following procedures. Plates were coated with hGFRa3.hFc at 2 μg/ml in PBS on a 96-well microtiter plate at 4° C. overnight for all three assays. […] In other microtiter plates, a constant amount of either 75 pM hARTN.mmh, 400 pM mfARTN.mmh, or 150 pM msARTN.mmh were separately bound with anti-ARTN antibodies and an irrelevant IgG4 antibody control at a serial dilution series from 0.0017 nM to 100 nM in PBS+0.5% BSA. After a one-hour incubation, the mixture solutions were transferred to microtiter plates coated with hGFRa3.hFc. After one hour of incubation at RT, the wells were washed with PBST, and plate-bound ARTN was detected with an anti-penta-His antibody conjugated with horseradish peroxidase (HRP) (Qiagen). The plates were then developed using TMB substrate solution (BD Biosciences, #555214) according to manufacturer's recommendation and absorbance at 450 nm was measured on a Victor X5 plate reader.
Binding data were analyzed using a sigmoidal dose-response model within Prism™ software (GraphPad). […] If the calculated IC50 value was below the LLOA, less than LLOA was reported. Percent blocking at 100 nM antibody was calculated based on the background-corrected binding signal observed at the highest antibody concentration tested using the formula listed below and reported for all tested antibodies: […]

B1: H4H33331P (antibody, human IgG4 S228P, kappa, V domains shown)
VH: EVQLVESGGDLVQPGGSLKLSCAASGFTFSGSAMHWVRQASGKGLEWVGRIRNKVHRYATEYGASVKGRFTISRDDSKNTAYLQMNSLKIEDTAVYYCVVVVPGSIEAFDIWGQGTMVTVSS
VL: DIQMTQSPSSLSASVGDRVTITCRASQSISTYLNWYQQKPGKAPNLLIYAASTLESGVPSRFSGSGSGTDFTLTISSLQPEDFEIYYCQQSYNIPWTFGQGTKVEIKR
notes: Fully human antibody (human variable and constant domains) from a VELOCIMMUNE mouse; also called Artemin mAb; anti-ARTN antibody
For B1, in the assay with hArtemin-MMH [1], the “Max inhibition (%), SRE-luciferase reporter, 500 pM hArtemin” value (“Max inhibition (%) … 500 pM hArtemin” below) turned out to be 100%. In addition, the “Max inhibition (%), SRE-luciferase reporter, 3 nM mfArtemin” value (“Max inhibition (%) … 3 nM mfArtemin” below) in the assay with MfArtemin-MMH [2] was 100%. Further, the “Max inhibition (%), SRE-luciferase reporter, 1 nM mArtemin” value (shortened to “Max inhibition (%) … 1 nM mArtemin”) with mArtemin-MMH [3] came to 100%. For the same molecule, the “Artemin Binding Response (nm)” value came out at 0.08 nm with mArtemin-MMH [4]; 0.11 nm in the assay with hArtemin-MMH [5]; 0.09 nm with MfArtemin-MMH [6]; 0.1 nm in the assay with mArtemin-MMH [7]; 0.02 nm in the assay with hArtemin-MMH [8]; 0 nm in the assay with MfArtemin-MMH [9]. Also, in the assay with mArtemin-MMH [10], the “Artemin Binding Response (nm)” value was 0.03 nm. Moreover, the “60 nM Artemin mAb Bound (RU)” value with hArtemin-MMH [11] was determined as 7 RU; with MfArtemin-MMH [12] it was 5 RU. Moreover, the Kd in the assay with hArtemin-MMH [11] turned out to be 2910 pM; in the assay with MfArtemin-MMH [12], 1510 pM. Also, the koff was found to be 0.000366 s⁻¹ with hArtemin-MMH [11] and 0.000199 s⁻¹ with MfArtemin-MMH [12]. In addition, the kon worked out at 126000 M⁻¹ s⁻¹ with hArtemin-MMH [11] and 131000 M⁻¹ s⁻¹ with MfArtemin-MMH [12]. Also, the entries for the “t½” value with hArtemin-MMH [11] and in the assay with MfArtemin-MMH [12] were 0.533 h and 0.967 h, respectively. The “% Blocking with 100 nM Ab” value with hArtemin-MMH [13] was determined as 88%. The molecule further yielded a half-maximal inhibitory concentration (IC50) in the assay with hArtemin-MMH [13] of 380 pM.

B2: H4H33336P (antibody, human IgG4 S228P, kappa, V domains shown)
VH: QVQLVESGGGVVQPGRSLRLSCVASGFILSHYGMHWVRQAPGKGLEWVAVIWFDGTNKYYADSVKGRFTVSRDNSKNTLYMQMNSLRAEDTAVYYCARDPPPARRGNYNGMDVWGQGTTVTVSS
VL: DIQMTQSPSSLSASVGDRVTITCRASQDIRNDLGWYQQKPGKAPKRLIFGASSLQSGVPLRFSGSGSGTEFTLTINNLQPEDFATFYCLQDNSYPWTFGQGTKVEIKR
notes: Fully human antibody; also called Artemin mAb; anti-ARTN antibody
Turning to B2, the “Max inhibition (%) … 500 pM hArtemin” value in the assay with hArtemin-MMH [1] was 100%. The “Max inhibition (%) … 3 nM mfArtemin” value with MfArtemin-MMH [2] was 100%. Further, the “Max inhibition (%) … 1 nM mArtemin” value with mArtemin-MMH [3] came to 100%. For the same molecule, the “Artemin Binding Response (nm)” value with mArtemin-MMH [4] was determined as 0.01 nm; in the assay with hArtemin-MMH [5], 0.12 nm; with MfArtemin-MMH [6], 0.06 nm; with mArtemin-MMH [7] it was 0.03 nm; in the assay with hArtemin-MMH [8], 0.03 nm; in the assay with MfArtemin-MMH [9], 0.01 nm. Moreover, the “Artemin Binding Response (nm)” value in the assay with mArtemin-MMH [10] stood at 0.01 nm. The entries for the “60 nM Artemin mAb Bound (RU)” value with hArtemin-MMH [11] and with MfArtemin-MMH [12] were 15 RU and 11 RU, respectively. Also, the figures for the equilibrium dissociation constant (Kd) in the assay with hArtemin-MMH [11] and in the assay with MfArtemin-MMH [12] were 150 pM and 111 pM, respectively. The results for the koff with hArtemin-MMH [11] and in the assay with MfArtemin-MMH [12] were 3.75e-05 s⁻¹ and 2.3e-05 s⁻¹, respectively. Further, the results for the on-rate constant (kon) in the assay with hArtemin-MMH [11] and with MfArtemin-MMH [12] were 249000 M⁻¹ s⁻¹ and 207000 M⁻¹ s⁻¹, respectively. The “t½” value with hArtemin-MMH [11] was 5.13 h; with MfArtemin-MMH [12] it was 8.37 h. Moreover, the “% Blocking with 100 nM Ab” value with hArtemin-MMH [13] amounted to 93%. Besides, the IC50 with hArtemin-MMH [13] was found to be 161 pM.

B3: H4H33349P (antibody, human IgG4 S228P, kappa, V domains shown)
VH: QVQLVESGGGVVQPGRSLRLSCEASGFTFSDYDLHWVRQAPGKGLEWVAFISNDGSNEYYPKSVKGRFSISRDNSKNTLYLQMNSLRAEDTAVYHCTKERDYYYDSSGSLDYWGQGTLVTVSS
VL: DIQMTQSPSSLSASVGDRVTITCRASQTINNYLNWYQQKPGKAPKLLIYTTSGLQSGVPSRFSGRGSGTDFTLAISSLQPEDFATYYCQQSYHSPFTFGPGTKVDIKR
notes: as for B2
With B3, in the assay with hArtemin-MMH [1], the “Max inhibition (%) … 500 pM hArtemin” value came to 100%. Besides, in the assay with MfArtemin-MMH [2], the “Max inhibition (%) … 3 nM mfArtemin” value worked out at 100%. Also, the “Max inhibition (%) … 1 nM mArtemin” value with mArtemin-MMH [3] turned out to be 100%. In addition, the “Artemin Binding Response (nm)” value turned out to be 0.11 nm with mArtemin-MMH [4]; 0.11 nm with hArtemin-MMH [5]; 0.12 nm with MfArtemin-MMH [6]; 0.11 nm in the assay with mArtemin-MMH [7]; 0.07 nm with hArtemin-MMH [8]; 0.02 nm with MfArtemin-MMH [9]. The “Artemin Binding Response (nm)” value in the assay with mArtemin-MMH [10] is 0.07 nm. For the same molecule, the “60 nM Artemin mAb Bound (RU)” value with hArtemin-MMH [11] was determined as 18 RU; with MfArtemin-MMH [12] it was 14 RU. Also, the values for the Kd with hArtemin-MMH [11] and with MfArtemin-MMH [12] were 119 pM and 210 pM, respectively. Moreover, the koff with hArtemin-MMH [11] came out at 5.9e-05 s⁻¹; with MfArtemin-MMH [12], 9.6e-05 s⁻¹. The results for the association rate constant (kon) with hArtemin-MMH [11] and with MfArtemin-MMH [12] were 497000 M⁻¹ s⁻¹ and 457000 M⁻¹ s⁻¹, respectively. Also, the “t½” value amounted to 3.27 h in the assay with hArtemin-MMH [11] and 2 h with MfArtemin-MMH [12]. Also, the “% Blocking with 100 nM Ab” value with hArtemin-MMH [13] was 95%. The half-maximal inhibitory concentration (IC50) with hArtemin-MMH [13] was found to be 128 pM.
